Patent US20190309084A1 (ALLIGATOR BIOSCIENCE, published 2019)

T1: Human GITR (Acro Biosystems, #GIR-H5228) (human, UniProt Q9Y5U5 26-161)
T1 construct: Bought recombinant protein, amine-coupled to the sensor tips; also called hGITR
T1 sequence: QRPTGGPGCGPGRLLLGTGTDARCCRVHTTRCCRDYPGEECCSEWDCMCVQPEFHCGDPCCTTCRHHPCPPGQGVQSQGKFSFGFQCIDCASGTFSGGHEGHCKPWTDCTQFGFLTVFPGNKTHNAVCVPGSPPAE

T2: GITR-hFc (R&D Systems, #689-GR) (human, UniProt Q9Y5U5 26-161)
T2 construct: Bought; also called Human GITR (coated in ELISA plates); not shown: human Fc part of a bought fusion protein
T2 sequence: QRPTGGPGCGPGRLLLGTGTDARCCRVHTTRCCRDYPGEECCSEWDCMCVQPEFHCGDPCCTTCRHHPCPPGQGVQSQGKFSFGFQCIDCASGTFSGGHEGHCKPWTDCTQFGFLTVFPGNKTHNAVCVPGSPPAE


Columns and labels:
[1] = biological target: T1, Human GITR (Acro Biosystems, #GIR-H5228); assay: BLI (Octet RED96), GITR amine-coupled to AR2G tips, bispecific as analyte, 1:1 fit
[2] = biological target: T2, GITR-hFc (R&D Systems, #689-GR); assay: dual ELISA: GITR-hFc coated, bispecific titrated, biotinylated CTLA-4-mFc then streptavidin-HRP, luminescence
[3] = biological target: T2, GITR-hFc (R&D Systems, #689-GR); assay: dual ELISA: GITR-hFc coated, bispecific titrated, detected with biotinylated CTLA-4-mFc + streptavidin-HRP (signal needs binding to both targets); afucosylated IgG1; dual ELISA, signal needs both GITR and CTLA-4
[4] = biological target: T3, human CTLA-4 (ACRO Biosystems, #CT4-H5229) (human, UniProt P16410 38-152); assay: BLI (Octet RED96), bispecific captured on anti-hIgG Fc (AHC) tips, hCTLA-4 as analyte, 1:1 fit
T3 construct: Bought recombinant protein, used as analyte in solution; also called hCTLA-4

[5] = biological target: T2, GITR-hFc (R&D Systems, #689-GR); assay: dual ELISA: GITR-hFc coated, bispecific titrated, detected with biotinylated CTLA-4-mFc + streptavidin-HRP (signal needs binding to both targets); wildtype IgG1; dual ELISA, signal needs both GITR and CTLA-4

T3 sequence (P16410 38-152 limits assumed): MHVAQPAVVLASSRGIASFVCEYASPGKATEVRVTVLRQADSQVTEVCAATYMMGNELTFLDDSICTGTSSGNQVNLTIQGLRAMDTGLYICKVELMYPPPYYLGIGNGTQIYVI

Binder	Kd [1] [pM]	koff [1] [s⁻¹]	kon [1] [M⁻¹ s⁻¹]	EC50 (read off the curve) [2] [pM]	EC50 [3] [pM]	Kd [4] [pM]	koff [4] [s⁻¹]	kon [4] [M⁻¹ s⁻¹]	EC50 [5] [pM]
GITR/CTLA-4 bispecific antibody 2348/2349 (bispecific antibody, Anti-GITR IgG with CD86 mutant 1040 fused to the C-terminus of the kappa chain) VH: EVQLLESGGGLVQPGGSLRLSCAASGFTFGYYYMSWVRQAPGKGLEWVSGISSPSSYTYYADSVKGRFTISRDNSKNTLYLQMNSLRAEDTAVYYCARYYGSYFDYWGQGTLVTVSS light: DIQMTQSPSSLSASVGDRVTITCRASQAISAYLNWYQQKPGKAPKLLIYAASSLQSGVPSRFSGSGSGTDFTLTISSLQPEDFATYYCQQSYGYYLYTFGQGTKLEIKRTVAAPSVFIFPPSDEQLKSGTASVVCLLNNFYPREAKVQWKVDNALQSGNSQESVTEQDSKDSTYSLSSTLTLSKADYEKHKVYACEVTHQGLSSPVTKSFNRGECSGGGGSGGGGSAPLKIQAYFNETADLPCQFANSQNLSLSELVVFWQDQENLVLNEVYLGKERFDSVDSKYMGRTSFDSDSWTLRLHNLQIKDKGRYQCIIHHKKPTGMINIHQMNSELSVLA	346	5.28e-05	153000	~1000	–	–	–	–	–
GITR/CTLA-4 bispecific antibody 2372/2373, afucosylated IgG1 format (bispecific antibody, afucosylated Fc domain) VH: EVQLLESGGGLVQPGGSLRLSCAASGFTFSGYSMGWVRQAPGKGLEWVSAISGSGGSTYYADSVKGRFTISRDNSKNTLYLQMNSLRAEDTAVYYCARYPWGYYFDYWGQGTLVTVSS light: DIQMTQSPSSLSASVGDRVTITCRASQGIRAYLNWYQQKPGKAPKLLIYAVSSLQSGVPSRFSGSGSGTDFTLTISSLQPEDFATYYCQQYYYPPLSTFGQGTKLEIKRTVAAPSVFIFPPSDEQLKSGTASVVCLLNNFYPREAKVQWKVDNALQSGNSQESVTEQDSKDSTYSLSSTLTLSKADYEKHKVYACEVTHQGLSSPVTKSFNRGECSGGGGSGGGGSAPLKIQAYFNETADLPCQFANSQNLSLSELVVFWQDQENLVLNEVYLGKERFDSVDSKYMGRTSFDSDSWTLRLHNLQIKDKGRYQCIIHHKKPTGMINIHQMNSELSVLA	–	–	–	–	540	–	–	–	–

More lines, now with the values ahead:

Kd [1] [pM]	koff [1] [s⁻¹]	kon [1] [M⁻¹ s⁻¹]	EC50 (read off the curve) [2] [pM]	EC50 [3] [pM]	Kd [4] [pM]	koff [4] [s⁻¹]	kon [4] [M⁻¹ s⁻¹]	EC50 [5] [pM]	Binder
1670	0.000423	254000	~600	–	–	–	–	–	GITR/CTLA-4 bispecific antibody 2404/2405 (bispecific antibody, IgG1) VH: EVQLLESGGGLVQPGGSLRLSCAASGFTFSYSSMSWVRQAPGKGLEWVSYIGSGGSHTYYADSVKGRFTISRDNSKNTLYLQMNSLRAEDTAVYYCARYSYYFDYWGQGTLVTVSS light: not shown
608	0.000214	351000	~500	–	2900	0.000551	190000	640	GITR/CTLA-4 bispecific antibody 2372/2373, wildtype IgG1 format (bispecific antibody) VH: EVQLLESGGGLVQPGGSLRLSCAASGFTFSGYSMGWVRQAPGKGLEWVSAISGSGGSTYYADSVKGRFTISRDNSKNTLYLQMNSLRAEDTAVYYCARYPWGYYFDYWGQGTLVTVSS light: DIQMTQSPSSLSASVGDRVTITCRASQGIRAYLNWYQQKPGKAPKLLIYAVSSLQSGVPSRFSGSGSGTDFTLTISSLQPEDFATYYCQQYYYPPLSTFGQGTKLEIKRTVAAPSVFIFPPSDEQLKSGTASVVCLLNNFYPREAKVQWKVDNALQSGNSQESVTEQDSKDSTYSLSSTLTLSKADYEKHKVYACEVTHQGLSSPVTKSFNRGECSGGGGSGGGGSAPLKIQAYFNETADLPCQFANSQNLSLSELVVFWQDQENLVLNEVYLGKERFDSVDSKYMGRTSFDSDSWTLRLHNLQIKDKGRYQCIIHHKKPTGMINIHQMNSELSVLA
